For data set [1], the target named is nucleosome core particle: human histone octamer (H2A, H2B, H3.1, H4) wrapped by DNA, P04908;P06899;P68431;P62805. Put plainly: smTIRF colocalization single-molecule imaging. The following applies: substrate NCP.
Data set [2] concerns the target nucleosome core particle: human histone octamer (H2A, H2B, H3.1, H4) wrapped by DNA (human) (UniProt P04908). Put plainly: mass photometry; CLOCK-BMAL1 with NCP SHL+5.8-tandem (2 E-boxes with 7-bp spacing in a 601 sequence), 10 and 60 nM (1:6), 20 mM Tris-HCl pH 7.5, 100 mM KCl, 0.5 mM TCEP.
Data set [3] shares this target. The data set is described as follows: mass photometry; CLOCK-BMAL1 with NCP SHL+5.8 (single E-box), 10 and 60 nM (1:6), 20 mM Tris-HCl pH 7.5, 100 mM KCl, 0.5 mM TCEP.
Data set [4] shares this target. The data set is described as follows: mass photometry; CLOCK-BMAL1 with NCP SHL−6.2, 10 and 60 nM (1:6), 20 mM Tris-HCl pH 7.5, 100 mM KCl, 0.5 mM TCEP, 30 min room temperature.
The target in data set [5] is CLOCK bHLH PAS-AB;BMAL1 bHLH PAS-AB WT (mouse;mouse) (UniProt O08785+Q9WTL8). Put plainly: mass photometry. The following applies: EMSA/SeEN-seq: 20 mM Tris-HCl pH 7.5, 75 mM NaCl, 10 mM KCl, 1 mM MgCl2, 0.1 mg/ml BSA, 1 mM DTT, room temp ~1 h, TR-FRET: 20 mM Tris-HCl pH 7.5, 75 or 125 mM ….
The test system of data set [6] is MYC bHLH-LZ;MAX bHLH-LZ (human;human), P01106-1+P61244. The data set is described as follows: SeEN-seq (EMSA + NGS). The following applies: 62.5 nM TF; EMSA/SeEN-seq: 20 mM Tris-HCl pH 7.5, 75 mM NaCl, 10 mM KCl, 1 mM MgCl2, 0.1 mg/ml BSA, 1 mM DTT, room temp ~1 h; TR-FRET: 20 mM Tris-HCl pH 7.5, 75 or 125 mM …. (In general: Mobility shift assays separate free from complexed probe on a gel.)

Data set [7] has the same test system. Put plainly: TR-FRET. The following applies: about threefold vs without, EMSA/SeEN-seq: 20 mM Tris-HCl pH 7.5, 75 mM NaCl, 10 mM KCl, 1 mM MgCl2, 0.1 mg/ml BSA, 1 mM DTT, room temp ~1 h, TR-FRET: 20 mM Tris-HCl pH 7.5, 75 or 125 mM …. (Time-resolved FRET reads energy transfer from a long-lived donor to a nearby acceptor.)
Data set [8] concerns the target nucleosome core particle with H2B(T122C–biotin): H2A–H2B(T122C–biotin)–H3.1–H4 octamer wrapped by DNA (human) (UniProt P04908). The data set is described as follows: FRET or BRET; LANCE TR-FRET forward titration: increasing His–MYC-MAX added to H2B(T122C)-biotinylated NCP SHL+5.1 with Eu-streptavidin, in the presence or absence of OCT4. (In BRET a luciferase serves as donor, and the signal depends on an acceptor being close.)

Sequence of MYC bHLH-LZ;MAX bHLH-LZ (human;human), P01106-1+P61244 (P01106 366-452, chain 1 of 2): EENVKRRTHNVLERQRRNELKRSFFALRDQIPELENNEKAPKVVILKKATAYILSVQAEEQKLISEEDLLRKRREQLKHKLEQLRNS
Sequence of MYC bHLH-LZ;MAX bHLH-LZ (human;human), P01106-1+P61244 (P61244 22-102, chain 2 of 2): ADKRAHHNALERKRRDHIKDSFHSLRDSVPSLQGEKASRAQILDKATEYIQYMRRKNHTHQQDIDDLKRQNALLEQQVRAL

On to “wild-type MYC-MAX–Spy, labelled with JF549–SpyCatcher (from UniProt P61244) MYC:S405Y; MYC:A408R”, for which the other: dwell time τoff,1 in data set [1] was found to be 0.6 s.
As usually defined, the stoichiometry N is the number of molecules, sites or subunits per partner or assembly. Regarding “CLOCK-BMAL1 bHLH PAS-AB heterodimer (from UniProt O08785 26-395; Q9WTL8 62-441) (complex)”, the percent bound (total amount of CLOCK-BMAL1 bound, tandem E-boxes) in data set [2] turned out to be 51%. Besides, in data set [3], the N (minority species) was 2 and the percent bound (total amount of CLOCK-BMAL1 bound, single E-box) came out at 19%. In data set [4], this substance yielded a stoichiometry N of 1.
Substance NCP SHL+5.8 (W601) had a binding signal in data set [5] (20 nM NCP, single E-box) of 19 % bound.
Turning to “wild-type MYC-MAX–Spy, labelled with JF549–SpyCatcher (from UniProt P61244) MAX:Y73A; MAX:R76A”, in data set [1], the other: dwell time τoff,1 was 0.86 s and the other: dwell time τoff,2 was 22 s.
Consider SeEN-seq NCP, E-box at SHL+5.8, for which, in data set [6], the binding signal (log2 enrichment) was 3.5.
With NCP SHL+5.1 for TR-FRET, the binding signal (fold tighter with OCT4) in data set [7] is 3.
In data set [5] (tandem E-box), NCP SHL+5.8-tandem yielded a binding signal of 51 % bound.
On to SeEN-seq NCP, E-box at SHL-6.2, for which the binding signal (log2 enrichment) in data set [6] was determined as 2.2.
As to “MYC-MAX bHLH LZ heterodimer (from UniProt P61244 22-102) (complex)”, the fold strengthening of the binding isotherm in the presence of OCT4 in data set [8] was found to be 3 fold.

The record behind these values is PMC10338342.
